test: soluble on expression in E. coli; label from the status in PepcDB or PDB records

Sequence	soluble on expression in E. coli
MSLTEATVERIRLFLIESPIKMARLQGVGNVKGTVKRVLIELTSSDGVIGWGEAAPWEVFTGTPEAAFSALDIYLRPIALGKPVRRIRALMAELDRALVGHAEAKVAIEMALLDIVGKSSGLSVADLLGGRVRDTIPLSFSIADPDFPADLERMRKMVPDGNVIYKVKTGVKPHREDLDHLEAIRKEFGDKVDLRVDYNQALAPFGAIKILRDVEEFAPTFIEQPVPRKYLDVMAQLTAALETPVLADESCFDRRDMMEVVRREAADAVSIKLMKAGGLFEAQAIMAIADIAGLPGYGGTLWEGGIGLAAGTQLIAATPGISLGCEFYMPHHVLTEDVLEERVANRAGHVVVPDGPGLGIRVSEASVRANAQVLAEGHHHHHH	not soluble
MSLTERKQRFLRRILTYYTLKRRESKWIIDYWLRNDSKLEQVHFVQNAMFAPKAMIITTYGFDADPFLFKKGEVKTTDPEKAYHDIRLTDEPLYIELNFQGMMMDDEYLSLLEENPFRPEVAVEPKLADAAMNFIAATVNRQEEERLVRLIDEALDARDKHRFQSLSDELRIIRSQLEGHHHHHH	soluble
MSLTETTDLYRMSSSLRVVALAETLQRARAFASRLGIIRVTDTTRLDCIGIPVFASIRPTALPGSLCVNAGKGLRPEEARVGAYMEAIEFAMAEYGRSAVDYVMATPRDVLDGRSRPEAILDFCPVFGAQITLDDPMPCVEAEELLSSTRCLVPAELVYVPAPAVEGVQRHFGSSSNGLCSGNSVWEASVHGLAEVIERDIQSFCFLHDTSVLVDIASLPPQPAALARQIGEAGFTLRLRYVENIFELPYFAAYVMEPDPVDAVYICGGFGCHPFKEIAAVRAICEAVQGRLSFIHGGRDDLIERHRLLAQMNGEQELAFSRKLAAKVSRPEGMIGFEAIGDRSGEVCDLSSAWEVLVAAIRKVGIAHVCRVVFTQPHDPVQVLKLIVPRLEMFDRSTRRIGPRLRDHARFHEGHHHHHH	not soluble
MSLTITENPYRLSLDIEGIGFQTADAIATSLGVAKNSLMRAEAGISHVLGELSQNGHCAVPEETLIDEASRLLQIDHPLVVEAVKNEKLTRRIVGETIDGVPCIFLESLHRAETGVASGLHRLMRGPLPWNALDPHDALPWIEETTALELSPSQRSAVTLVLASKVSIITGGPGVGKTTILKAILSVLQREKVSVALCAPTGRAAKRLTESTGIEAKTIHRLLEFDPQAFDFKRGRGNPLDASFVVVDETSMVDVVLMQKLVAAIPDHAAVVFVGDVDQLPSVGPGAVLADMISSEAIPTVRLTEIFRQAAESMIVVNAHRINQGDMPLTEGHHHHHH	soluble
MSLTKLKKVMISVIAATLLLLAGCGSSAVVKTDAGSVTQDELYEAMKTTYGNEVVQQLTFKKILEDKYTVTEKEVNAEYKKYEEQYGDSFESTLSSNNLTKTSFKENLEYNLLVQKATEANMNVSESKLKTYYKTWEPDITVRHILVDDEATAKEIQTKLKNGEKFTDLAKEYSTDTATSTNGGLLDPFGPGEMDETFEKAAYALENKDDVSGIVKSTYGYHLIQLVKKTEKGTYAKEKANVKAAYIESQLTTENMTAALKKELKAANIDIKDSDLKDAFADYTEGHHHHHH	soluble
MSLTKYIFVTGGVVSSIGKGIVAASLGRLLKNRGLKVTIQKFDPYINIDPGTMSPYQHGEVYVTDDGAETDLDLGHYERFIDINLNKYSNVTTGKIYSEVLRKERKGEYLGATVQVIPHITDALKEKIKRAATTTDSDVIITEVGGTVGDIESLPFLEALRQMKADVGADNVMYIHTTLLPYLKAAGEMKTKPTQHSVKELRGLGIQPNMLVIRTEQPAGQGIKNKLAQFCDVAPEAVIESLDVDHLYQIPLNLQAQNMDQIVCDHLKLDVPVADMTEWSAMVDKVMNLKKKTKIALVGKYVELPDAYLSVVEALKHSGYVNDTAIDLNWINANEVTPETVTDLLGDADGIIVPGGFGHRGTEGKIEAIRYARENDVPMLGICLGMQLTCVEYARHVLNLEGANSAELDPDTKYPVIDIMRDQIDIEDMGGTLRLGLYPCKLKSGSKTASAYSNQEVVQRRHRHRYEFNNAFRQQFEEAGFVFSGVSPDNRLVEVVELSDKKFFVAAQYHPELQSRPNRPEELYTAFITAAVENSQAHEGHHHHHH	soluble
MSLTLAFAYVRASTIEEVRQGSNERQKEAIRQYTYQKGYELEIFEDKAKSGRNTLRPEFERMLKSLDRRPQIVIVSKIDRFARSLSDLLKTLEYLDQNGVGFVSVNDPGIDTTTPNGRLLLQILGAFAEFERNMINSRTKAGREQAQSKGVKKGIITITTDPNSSSVDKLAAALEHHHHHH	soluble
MSLTLKLLAEVAGEKVSRFDNKGDIWYDLISAVHKSIRGSNPDAALYWSARMIAAGCDPLYIARRLLAIASEDVGNADPRAMQVALSAWDCFTRVGPAEGERAIAQAIVYLACAPKSNAVYTAWKQALSDAHNLPEFEVPFHLRNAPTGLMKDLGYGEGYRYAHDEPGAYAAGEQYLPAEIDDRKYYQPTNRGLESKIAEKLDYLANLDANSPQKRYEEGHHHHHH	not soluble
MSLTLVTELTPPAASAPPFSDHPDHVIAAVTATIVDLPLRRPHFHATGTHATQSLVMVELVTSGGAVGWGEGGTPGGTAFWGGECVETIKLMIDHYLAPAVIGISVFDQERILAAMDRIAANNHFAKAAIDIAVHDAAARLIGISVSQMFGGTARSTVPVLWALAAAAYEADVADAIEQIEAGRHSVFKIKIGKGDAASETRRALETATTIHDAHPDARFVVDLNQAWDESTAMRWLAAFQERDFLFVEQPVPAWNVEGMIRLASRFEIPIMADEGLWDFHDAYELIRRGATDIYAVKIAKGGGLRRAFKAAAVAEAAGVPLYGGMALESSVGTAAGLQLFSALPNLPFGCELIGPRLLAEDLTVQPIAYRDREVVVPSGVGMGVEIDRDRVRSFTRRNKEGHHHHHH	soluble
MSLTNHQVSYFSLQDVKLLSSPFLQAQQTDLHYILALDPDRLSAPFLREAGLTPKAPSYTNWENTGLDGHIGGHYLSALSMMYAATGDTAIYHRLNYMLNELHRAQQAVGTGFIGGTPGSLQLWKEIKAGDIRAGGFSLNGKWVPLYNIHKTYAGLRDAYLYAHSDLARQMLIDLTDWMIDITSGLSDNQMQDMLRSEHGGLNETFADVAEITGDKKYLKLARRFSHKVILDPLIKNEDRLNGMHANTQIPKVIGYKRVAEVSKNDKDWNHAAEWDHAARFFWNTVVNHRSVCIGGNSVREHFHPSDNFTSMLNDVQGPETCNTYNMLRLTKMLYQNSGDVDNSNKPDPRYVDYYERALYNHILSSQEPDKGGFVYFTPMRPGHYRVYSQPETSMWCCVGSGLENHTKYGEFIYAHQQDTLYVNLFIPSQLNWKEQGVTLTQETLFPDDEKVTLRIDKAAKKNLTLMIRIPEWAGNSKGYEITINGKKHLSDIQTGASTYLPIRRKWKKGDMITFHLPMKVSLEQIPDKKDYYAFLYGPIVLATSTGTENLDGEGHHHHHH	soluble
MSLTNITQCKNRRCGGELGDFTGYIESPNYPGNYPANTECTWTINPPPKRRILIVVPEIFLPIEDDCGDYLVMRKTSSSNSVTTYETCQTYERPIAFTSRSKKLWIQFKSNEGNSARGFQVPYVTYDEDYQELIEDIVRDGRLYASENHQEILKDKKLIKALFDVLAHPQNYFKYTAQESREMFPRSFIRLLRSKVSRFLRPYKEGHHHHHH	not soluble
MSLTNKMIYDQASGLRRLTQPSVTKVISVTGGKGGVGKSNVTLGMAICMAKQGKKVMVLDADLGLANVDVMLGIRPKRNLGHVLAGECELKDAIVEGPHGIRIIPATSGTQSMTELSHAQHVGLIRAFGTLEDEMDILLIDTAAGISDMVVSFSRAAQDVVVVVCDEPTSITDAYALIKLLSKEHQVQRFKIVANMVRSYREGRELFAKLTLVTERFLNVSLELVACIPLDDNVRQAVKRQKIVVDAYPRSPAALAISSLANKALTWPIPRTPSGHLEFFVERLLNRSEGHHHHHH	soluble
MSLTNNLTTKASLVSSAFSPVLVVGKKKELRQPVKIKAVNWHHKKRPVELQVGNFPPERYVLSPGINNIETSIPEVTAPCELPIILKEQGKTVSKINEKATPVKKWTVYLVQHTHTDIGYTKPQTEILSEHLRYIDYAIEYCEQTKDYTNDAKFRWTCESAWAVDEYLKNRPEEQVNKLKKYIAEGQIEVASMYFNMSEIVDENSFKTFLQPVKEFRKHGIPSALAMQNDVNGIAWCLADYLPDLGIKYLWMGEHHYKSQVPFNMPTVFQWESPSGKPILTYRADHYNTGNFWGIEQGDIQKTEPKLLHYLSELERKHYPFDAVGVQYSGYFTDNSPPSIIECKLIREWNEKYAYPKLRSATASEFMDYVTERYGDKIPAYRAEGHHHHHH	soluble
MSLTPMFKTPVVMTIAGSDSGGGAGIAADIKTFAAFGVHGTCAITSVTAQNTTGVLETFDLAPEAVASQIEAVCTDMDVKWAKTGMLASSEIIKEVAKQVKKHNLSLVLDPVMAAEAGGDLLKKEALSVLIKELLPLCKVTTPNASEAGALAGVTVKTHEDAKLAARKIADLGVESVIVTGGHIDATDLLYEPVSGTFTRIPGTFVKGGTHGSGCTYSASMAACLARGDSTETAARKAKTFVEQAILRSVPVGKGVGPVNPLANTLEEKERYLALQDVKEAVSILTYSPDFAKLIPEVGCNIGMAIPCARTYNEIAAVEGRIIRFREKAIPVGYVNFGASQHVARVILAALRENPEMRAAMNVKYSEEILEACREINPGISSFDRAEDPGDASTMEWGTSEAIRKYGGMPEVIYDKGAIGKEPMVRLLGKSASEVAKLAVELARRVKEGHHHHHH	soluble
MSLTPRDHTLILIDYQSQMAFATHSIDIPTLRNNAGLVASAAAGFGVSAILTTVAEKSFSGPMFDEVTAPFPDLRMLDRTSMNTWEDAAVIDRVNQIGKGRIVLAGLWTSVCIVGPALSALDQGFEVYVIADACGDISAEAHERAMQRMVQAGARPITSLQYLLELQRDWARTDTYELTTGIAAKLGGGYGLGIRYAKTMFGGHEGHHHHHH	soluble
MSLTQFASPVLHSLLDTDAYKLHMQQAVFHHYYDVHVAAEFRCRGDDLLGIYADAIREQVQAMQHLRLQDDEYQWLSALPFFKADYLNWLREFRFNPEQVTVSNDNGKLDIRLSGPWREVILWEVPLLAVISEMVHRYRSPQADVAQALDTLESKLVDFSALTAGLDMSRFHLMDFGTRRRFSREVQETIVKRLQQESWFVGTSNYDLARRLSLTPMGTQAHEWFQAHQQISPDLANSQRAALAAWLEEYPDQLGIALTDCITMDAFLRDFGVEFASRYQGLRHDSGDPVEWGEKAIAHYEKLEIDPQSKTLVFSDNLDLRKAVELYRHFSSRVQLSFGIGTRLTCDIPQVKPLNIVIKLVECNGKPVAKLSDSPGKTICHDKAFVRALRKAFDLPHIKKASEGHHHHHH	soluble
MSLTQFKKFAEHISSCFSPSAIQEFSRKSKIVKRKRMFTIDHLLWLCVWQEKNMGDSSLIDMCASLWQQFGIKISPEGLNQRFNEKSTAFLKLLFHSILEKQTPDLAAIQHAYSTHFNRIRILDSTSFQLPNTFSDKYPGNGCLMQLKSAEGHHHHHH	not soluble
MSLTQIENSQYRKHKQKQQHLQHSLTGESKTAIVVFSRSGNTATLSEHIAHKTNGHVYEIFAKSYALGIPGWINALKDARSNVAEIVPQHIDLSSYDTVYLGSPIWLYSPAPPFWQFVKDNDLTNKRVILFNSFNSKFEQHFIDEFAALARAKGATSFEHQYVKRGRMGDQLSTDEMLAAFDHLNPNEGHHHHHH	soluble

From the DeepSol protein solubility set
